In patent EP1951759B1 (ELI LILLY AND COMPANY, dated 2010) one finds koff data, which are given here for one molecule.

The assay concerns the target T1, soluble EGFR (sEGFR): amino acids 1-619 of mature human EGFR with (Gly)4Ser linker and (His)6 tag (human, UniProt P00533 25-643, biotinylated with Sulfo-NHS-LC-Biotin (B-sEGFR) in the filter lift and the capture ELISA).
T1 construct: range 25-643; also called B-sEGFR; biotinylated sEGFR
Description: KinExA; calculated as Kd x kon.

B1: full-length monoclonal antibody VH4.15 (antibody, V domains shown)
VH: QVQLQESGPGLVKPSETLSLTCTVSGFSLTNYGVHWIRQPPGKGLEWIGNIWSGGNTDYNTPFTSRVTISVDTSKNQFSLKLSSVTAADTAVYYCARALDYYDYDYAYWGQGTMVTVSS
VL: EIVLTQSPDFQSVTPKEKVTITCRASYSIGTNIHWYQQKPDQSPKLLIKYASESISGVPSRFSGSGSGTDFTLTINSLEAEDAATYYCQQNNEWPTSFGGGTKVEIK
notes: Full-length antibody with human Fc
The term koff denotes the rate constant with which the complex falls apart. For the molecule B1, the koff is 1.46e-06 s⁻¹.
